{"source": "patent US20190077860A1", "about": "(EISAI R AND D MANAGEMENT, published 2019)", "binders": {"B1": {"name": "humanized antibody No. 95 (antibody, human IgG1, kappa)", "heavy": "QVQLVQSGSELKKPGASVKVSCKASGYTFTDYSMHWVRQAPGQGLEWMGWINTETGEPTYADDFKGRFVFSLDTSVSTAYLQISSLKAEDTAVYYCARIPLYYYGSRYWYFDVWGQGTTVTVSSASTKGPSVFPLAPSSKSTSGGTAALGCLVKDYFPEPVTVSWNSGALTSGVHTFPAVLQSSGLYSLSSVVTVPSSSLGTQTYICNVNHKPSNTKVDKRVEPKSCDKTHTCPPCPAPPAAAPSVFLFPPKPKDTLMISRTPEVTCVVVDVSHEDPEVQFNWYVDGVEVHNAKTKPREEQFNSTFRVVSVLTVVHQDWLNGKEYKCKVSNKGLPAPIEKTISKTKGQPREPQVYTLPPSREEMTKNQVSLTCLVKGFYPSDIAVEWESNGQPENNYKTTPPMLDSDGSFFLYSKLTVDKSRWQQGNVFSCSVMHEALHNHYTQKSLSLSPG", "light": "EIVMTQSPATLSVSPGERATLSCRASENIYRNLAWYQQKPGQSPRLLIYAATNLADGIPARFSGSGSGTEYTLTISSLQSEDFAVYYCQHFWGTPWTFGQGTKVEIKRTVAAPSVFIFPPSDEQLKSGTASVVCLLNNFYPREAKVQWKVDNALQSGNSQESVTEQDSKDSTYSLSSTLTLSKADYEKHKVYACEVTHQGLSSPVTKSFNRGEC", "notes": "human Ig kappa; also called L2-4/HK1"}, "B2": {"name": "humanized antibody No. 96 (antibody, human IgG1, kappa)", "heavy": "B1 heavy with E46K", "light": "B1 light", "notes": "human Ig kappa; also called L2-4/HK2"}}, "experiment_in_all_cases": "ELISA", "key": {"[1]": {"target": "T1, human EphB3 extracellular region-SEAP-His protein (human, UniProt P54753 34-559)", "T1 construct": "extracellular domain; also called hEphB3-SEAP-His", "T1 sequence (looked up)": "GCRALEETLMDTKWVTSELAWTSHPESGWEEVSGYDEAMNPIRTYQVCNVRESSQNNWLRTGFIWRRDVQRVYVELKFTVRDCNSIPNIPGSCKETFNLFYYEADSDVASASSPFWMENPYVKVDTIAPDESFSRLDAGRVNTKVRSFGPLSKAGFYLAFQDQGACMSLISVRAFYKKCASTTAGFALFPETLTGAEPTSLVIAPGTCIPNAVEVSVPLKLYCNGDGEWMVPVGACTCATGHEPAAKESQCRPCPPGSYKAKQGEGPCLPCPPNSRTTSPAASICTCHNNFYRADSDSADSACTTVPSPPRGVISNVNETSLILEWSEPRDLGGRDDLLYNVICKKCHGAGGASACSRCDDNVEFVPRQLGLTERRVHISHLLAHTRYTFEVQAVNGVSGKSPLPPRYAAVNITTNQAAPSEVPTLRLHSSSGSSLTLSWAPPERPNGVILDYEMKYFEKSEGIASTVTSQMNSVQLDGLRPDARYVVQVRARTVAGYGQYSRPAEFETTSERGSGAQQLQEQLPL"}, "[2]": {"target": "T2, human EphA7 extracellular region-SEAP-His protein (human, UniProt Q15375 28-555)", "T2 construct": "extracellular domain; also called hEphA7-SEAP-His", "T2 sequence (looked up)": "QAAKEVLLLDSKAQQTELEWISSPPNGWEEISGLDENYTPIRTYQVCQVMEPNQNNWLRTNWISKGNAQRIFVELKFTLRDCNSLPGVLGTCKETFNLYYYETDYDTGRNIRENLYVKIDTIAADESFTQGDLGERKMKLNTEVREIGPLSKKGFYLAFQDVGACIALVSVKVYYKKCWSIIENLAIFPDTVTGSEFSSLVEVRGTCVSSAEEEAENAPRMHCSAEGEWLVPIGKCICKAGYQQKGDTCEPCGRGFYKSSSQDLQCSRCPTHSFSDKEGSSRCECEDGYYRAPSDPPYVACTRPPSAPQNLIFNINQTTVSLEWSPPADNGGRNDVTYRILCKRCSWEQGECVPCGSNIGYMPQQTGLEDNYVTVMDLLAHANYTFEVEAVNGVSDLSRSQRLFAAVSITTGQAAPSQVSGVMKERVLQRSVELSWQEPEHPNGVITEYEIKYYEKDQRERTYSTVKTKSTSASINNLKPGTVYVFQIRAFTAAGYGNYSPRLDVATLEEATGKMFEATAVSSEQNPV"}, "[3]": {"target": "T3, human EphA1 extracellular region-SEAP-His protein (human, UniProt P21709 26-547)", "T3 construct": "extracellular domain; also called hEphA1-SEAP-His", "T3 sequence (looked up)": "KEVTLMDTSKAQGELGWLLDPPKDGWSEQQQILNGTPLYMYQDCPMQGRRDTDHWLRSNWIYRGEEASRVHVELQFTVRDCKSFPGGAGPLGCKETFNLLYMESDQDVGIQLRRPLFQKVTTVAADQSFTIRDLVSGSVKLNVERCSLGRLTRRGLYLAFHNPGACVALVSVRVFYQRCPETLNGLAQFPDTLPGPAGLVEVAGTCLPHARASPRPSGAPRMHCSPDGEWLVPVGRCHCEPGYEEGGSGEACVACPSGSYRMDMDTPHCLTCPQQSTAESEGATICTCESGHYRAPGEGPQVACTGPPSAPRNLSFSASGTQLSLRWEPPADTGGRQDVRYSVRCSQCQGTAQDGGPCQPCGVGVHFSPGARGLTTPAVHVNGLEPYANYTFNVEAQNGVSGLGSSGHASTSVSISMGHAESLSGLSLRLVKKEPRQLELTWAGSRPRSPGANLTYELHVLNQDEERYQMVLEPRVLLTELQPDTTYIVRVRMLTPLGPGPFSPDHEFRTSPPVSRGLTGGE"}, "[4]": {"target": "T4, human EphB6 extracellular region-SEAP-His protein (human, UniProt O15197 32-594)", "T4 construct": "extracellular domain; also called hEphB6-SEAP-His", "T4 sequence (looked up)": "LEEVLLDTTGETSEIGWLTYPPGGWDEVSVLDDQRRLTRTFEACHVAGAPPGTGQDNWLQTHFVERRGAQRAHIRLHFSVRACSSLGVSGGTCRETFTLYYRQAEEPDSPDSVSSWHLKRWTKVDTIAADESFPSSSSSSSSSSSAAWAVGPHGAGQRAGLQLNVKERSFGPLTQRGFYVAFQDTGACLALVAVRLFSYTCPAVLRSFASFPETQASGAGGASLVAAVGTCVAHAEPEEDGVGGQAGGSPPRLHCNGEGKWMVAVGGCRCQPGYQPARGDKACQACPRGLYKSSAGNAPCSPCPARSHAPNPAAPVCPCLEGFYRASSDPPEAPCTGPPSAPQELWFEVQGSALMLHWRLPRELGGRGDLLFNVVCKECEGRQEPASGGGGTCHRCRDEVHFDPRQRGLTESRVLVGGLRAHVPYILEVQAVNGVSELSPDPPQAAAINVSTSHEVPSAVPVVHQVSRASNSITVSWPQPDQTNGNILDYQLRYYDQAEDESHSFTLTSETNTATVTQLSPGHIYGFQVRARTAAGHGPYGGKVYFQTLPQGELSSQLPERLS"}, "SEAP-His": {"target": "SEAP-His (UniProt P05187 23-511)", "sequence (P05187 23-511)": "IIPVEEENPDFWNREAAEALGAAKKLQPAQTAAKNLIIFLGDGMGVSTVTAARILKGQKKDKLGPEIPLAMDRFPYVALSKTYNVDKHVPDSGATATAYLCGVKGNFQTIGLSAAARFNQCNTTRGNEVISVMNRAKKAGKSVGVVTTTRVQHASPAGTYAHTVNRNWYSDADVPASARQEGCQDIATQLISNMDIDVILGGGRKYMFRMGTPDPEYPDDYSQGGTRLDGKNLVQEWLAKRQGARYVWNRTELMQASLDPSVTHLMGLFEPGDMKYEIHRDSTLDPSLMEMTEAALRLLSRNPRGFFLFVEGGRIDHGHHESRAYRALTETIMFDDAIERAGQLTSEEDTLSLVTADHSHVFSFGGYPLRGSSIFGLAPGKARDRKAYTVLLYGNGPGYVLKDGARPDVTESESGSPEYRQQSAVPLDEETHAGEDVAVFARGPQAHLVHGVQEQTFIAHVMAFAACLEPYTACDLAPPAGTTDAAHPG"}, "[5]": {"target": "T5, human EphA5 extracellular region-SEAP-His protein (human, UniProt P54756 25-573)", "T5 construct": "extracellular domain; also called hEphA5-SEAP-His", "T5 sequence (P54756 25-573)": "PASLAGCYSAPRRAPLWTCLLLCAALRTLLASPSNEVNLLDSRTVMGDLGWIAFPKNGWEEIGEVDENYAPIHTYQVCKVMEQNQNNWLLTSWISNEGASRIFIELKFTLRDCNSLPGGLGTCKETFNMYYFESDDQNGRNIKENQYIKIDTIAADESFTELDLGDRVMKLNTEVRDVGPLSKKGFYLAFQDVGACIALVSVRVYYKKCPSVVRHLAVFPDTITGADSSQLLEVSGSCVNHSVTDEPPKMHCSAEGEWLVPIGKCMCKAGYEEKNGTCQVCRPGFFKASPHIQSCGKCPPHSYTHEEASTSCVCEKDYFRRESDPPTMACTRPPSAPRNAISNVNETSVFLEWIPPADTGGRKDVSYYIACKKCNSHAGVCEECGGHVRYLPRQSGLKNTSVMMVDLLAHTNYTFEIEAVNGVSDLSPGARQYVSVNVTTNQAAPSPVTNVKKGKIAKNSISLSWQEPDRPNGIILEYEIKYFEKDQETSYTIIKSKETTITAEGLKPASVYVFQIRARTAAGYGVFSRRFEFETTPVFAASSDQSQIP"}}, "note": "Numbering of substitutions follows the chain as printed.", "data": [{"binder": "B1", "values": [{"measurement": "A450 as % of hEphA4-SEAP-His", "setting": "[1]", "value": 4.6, "unit": "%"}, {"measurement": "A450 as % of hEphA4-SEAP-His", "setting": "[2]", "value": 4.4, "unit": "%"}, {"measurement": "A450 as % of hEphA4-SEAP-His", "setting": "[3]", "value": 4.5, "unit": "%"}, {"measurement": "A450 as % of hEphA4-SEAP-His", "setting": "[4]", "value": 4.7, "unit": "%"}, {"measurement": "A450 as % of hEphA4-SEAP-His", "setting": "SEAP-His", "value": 4.4, "unit": "%"}, {"measurement": "A450 as % of hEphA4-SEAP-His", "setting": "[5]", "value": 4.6, "unit": "%"}]}, {"binder": "B2", "values": [{"measurement": "A450 as % of hEphA4-SEAP-His", "setting": "[1]", "value": 5.6, "unit": "%"}, {"measurement": "A450 as % of hEphA4-SEAP-His", "setting": "[2]", "value": 5.3, "unit": "%"}, {"measurement": "A450 as % of hEphA4-SEAP-His", "setting": "[3]", "value": 5.6, "unit": "%"}, {"measurement": "A450 as % of hEphA4-SEAP-His", "setting": "[4]", "value": 5.5, "unit": "%"}, {"measurement": "A450 as % of hEphA4-SEAP-His", "setting": "SEAP-His", "value": 5.5, "unit": "%"}, {"measurement": "A450 as % of hEphA4-SEAP-His", "setting": "[5]", "value": 6, "unit": "%"}]}]}
